In patent US20210085784A1 (PROGASTRINE ET CANCERS S R L, published 2021):

T1: human progastrin (human, UniProt P01350 22-101)
T1 construct: also called hPG; PG
T1 sequence: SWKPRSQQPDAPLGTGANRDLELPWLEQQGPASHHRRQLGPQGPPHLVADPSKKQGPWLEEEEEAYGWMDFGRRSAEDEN

B1: mAb16 (antibody, V domains shown)
VH: QVQLQQSGAELVKPGASVKLSCKASGYTFTSYYMYWVKQRPGQGLEWIGEINPSNGGTNFNEKFKSKATLTVDKSSSTAYMQLSSLTSEDSAVYYCTRGGYYPFDYWGQGTTLTVSS
VL: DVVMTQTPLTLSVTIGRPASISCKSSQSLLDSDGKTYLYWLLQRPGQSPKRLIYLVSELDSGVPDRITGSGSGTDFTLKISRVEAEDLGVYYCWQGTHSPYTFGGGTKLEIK
notes: Murine monoclonal antibody from a hybridoma, raised against hPG 1-14; also called 1E9D9B6
B2: mAb19 (antibody, V domains shown)
VH: DVQLQESGPGLVKPSQSLSLTCTVTGYSITSDYAWNWIRQFPGNKLEWMGYISFSGYTSYNPSLKSRISVTRDTSRNQFFLQLTSVTTEDTATYYCAREVNYGDSYHFDYWGQGTIVTVSS
VL: QLALTQSSSASFSLGASAKLTCTLSSQHRTYTIEWYQQQSLKPPKYVMEVKKDGSHSTGHGIPDRFSGSSSGADRYLSISNIQPEDEAIYICGVGDAIKGQSVFVFGGGTKVTVL
notes: Murine monoclonal antibody from a hybridoma, raised against hPG 1-14; also called 1B3B4F11
B3: mAb13 (antibody, V domains shown)
VH: EVQLVESGGGLVQPGGSLKLSCAASGFIFSSYGMSWVRQSPDRRLELVASINTFGDRTYYPDSVKGRFTISRDNAKNTLYLQMTSLKSEDTAIYYCARGTGTYWGQGTTLTVSS
VL: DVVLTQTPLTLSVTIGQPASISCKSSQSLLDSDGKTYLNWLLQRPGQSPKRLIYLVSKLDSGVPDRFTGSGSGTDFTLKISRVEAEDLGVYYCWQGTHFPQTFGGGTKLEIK
notes: Murine monoclonal antibody from a hybridoma, raised against hPG 55-80; also called 2C6C3C7
B4: mAb3 (antibody, V domains shown)
VH: EVQLQQSGTVLARPGASVKMSCKASGYIFTSYWVHWVKQRPGQGLEWIGGFYPGNSDSRYNQKFKGKATLTAVTSASTAYMDLSSLTNEDSAVYFCTRRDSPQYWGQGTTLTVSS
VL: DVLMTQTPLSLPVSLGDQASISCRSSQSIVHSNGNTYLEWYLQKPGQSPKLLIYKVSNRFSGVPDRFSGSGSGTDFTLKISRLEAEDLGVYYCFQGSHVPFTFGGGTKLEIK
notes: Murine monoclonal antibody from a hybridoma, raised against hPG 1-14; also called 6B5B11C10
B5: mAb4 (antibody, V domains shown)
VH: QVQLQQSGAELMKPGASVKISCKATGYTFSSSWIEWLKQRPGHGLEWIGEFLPGSGSTDYNEKFKGKATFTADTSSDTAYMLLSSLTSEDSAVYYCATDGNYDWFAYWGQGTLVTVSA
VL: DLVMTQTPLSLPVSLGDQASISCRSSQSLVHSSGVTYLHWYLQKPGQSPKLLIYKVSNRFSGVPDRFSGSGSGTDFTLKISRVEAEDLGVYFCSQSTHVPPTFGSGTKLEIK
notes: Murine monoclonal antibody from a hybridoma, raised against hPG 1-14; also called 20D2C3G2

Molecular target: T1, human progastrin
Assay: epitope mapping, method not described

Q: Does B1 bind?
A: Result: binds

Q: Does B2 bind?
A: Result: binds

Q: Does B3 bind?
A: Result: binds

Q: Does B4 bind?
A: Result: binds

Q: Does B5 bind?
A: Result: binds
